For orientation: Kd means the constant that tells how readily two partners part at equilibrium. A higher Kd goes with weaker binding.

The results in this text go back to paper PMC5104691, “Crystal Structure of the Neuropilin-1 MAM Domain: Completing the Neuropilin-1 Ectodomain Picture” (Structure(London, England:1993), 2016).

The data set concerns the molecule itself. Description: ITC; dissociation by dilution: 900 μM MAM domain in the syringe titrated into buffer (20 mM Tris pH 8.0, 100 mM NaCl), one 0.4 μL and 19 injections of 2 μL, at 15°C and 20°C; dimer or oligomer to monomers. (Isothermal titration calorimetry measures the heat released or taken up as one component is titrated into another.)

B1: MAM domain of human neuropilin-1 (residues 628-813), wild-type glycosylated (domain or fragment, UniProt O14786 628-813, looked up)
chain: ATEKPTVIDSTIQSEFPTYGFNCEFGWGSHKTFCHWEHDNHVQLKWSVLTSKTGPIQDHTGDGNFIYSQADENQKGKVARLVSPVVYSQNSAHCMTFWYHMSGSHVGTLRVKLRYQKPEEYDQLVWMAIGHQGDHWKEGRVLLHKSLKLYQVIFEGEIGKGNLGGIAVDDISINNHISQEDCAKPA
modifications: glycosylated at serine and threonine residues upstream of the predicted MAM domain (O-linked glycosylation sites)
notes: Neuropilin-1 (NRP1), human, amino acid residues 628-813 (linker region and MAM/c domain); also called NRP1 MAM domain; NRP1 MAM; source: FreeStyle HEK293-F cells, transfected, secreted
Take B1: the dissociation constant (Kd) is > 900 µM.
